Measured values from the supplement of paper PMC12667976.
± gives the standard error.

B1: library; numbered along this chain (parent)
chain: MATDAALRRLLRLHRTEIAVAVDSAFPLLHALADHDVVPEDKFQETLHLKEKEGCPQAFHALLSWLLTQDSTAILDFWRVLFKDYNLERYGRLQPILDSFPKDVDLSQPRKGRKPPAVPKALVPPPRLPTKRKASEEARAAAPAALTPRGTASPGSQLKAKPPKKPESSAEQQRLPLGNGIQTMSASVQRAVAMSSGDVPGARGAVEGILIQQVFESGGSKKCIQVGGEFYTPSKFEDSGSGKNKARSSSGPKPLVRAKGAQGAAPGGGEARLGQQGSVPAPLALPSDPQLHQKNEDECAVCRDGGELICCDGCPRAFHLACLSPPLREIPSGTWRCSSCLQATVQEVQPRAEEPRPQEPPVETPLPPGLRSAGEEVRGPPGEPLAGMDTTLVYKHLPAPPSAAPLPGLDSSALHPLLCVGPEGQQNLAPGARCGVCGDGTDVLRCTHCAAAFHWRCHFPAGTSRPGTGLRCRSCSGDVTPAPVEGVLAPSPARLAPGPAKDDTASHEPALHRDDLESLLSEHTFDGILQWAIQSMARPAAPFPS

Variants of: B1
Assay: AIRE transcriptional activation functional score (insulin promoter-GFP; nonsense median 0, synonymous median 1) (normalised score); higher = higher AIRE activity (more reporter activation)
Settings: with insulin promoter-GFP reporter in HEK293
Procedure, shortened: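 Using Bxb1 recombinase, codon-optimized NNN-codon libraries for three AIRE regions were inserted into Flp-In T-REx HEK293 landing-pad cells with an insulin core promoter-GFP reporter. After integrants (mCherry+, BFP−) were sorted at day 7 and expanded for 7 days, the top 10% GFP and unselected integrant populations underwent tile-sequencing. Functional scores are wild-type-subtracted enrichments of variants in select over non-select samples. A cutoff of 10 counts per million in non-select applied, and values were rescaled (nonsense median 0, synonymous median 1) and averaged over biological replicates.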

AIRE transcriptional activation functional score, by site and new letter:
R433: Y 0.349 ± 0.15; W 1.4 ± 0.071; V 0.599 ± 0.19
T441: P 1.13 ± 0.11; E 0.676 ± 0.27; M 1.24 ± 0.095; D 0.0827 ± 0.34; F 0.823 ± 0.34; K 1.31 ± 0.051; L 1.13 ± 0.093; W 1.57 ± 0.035; V 0.851 ± 0.17; S 1.02 ± 0.28; H 1.1 ± 0.27; A 1.03 ± 0.36; I 1.08 ± 0.17; N 0.751 ± 0.16; Y 1.12 ± 0.098; R 0.696 ± 0.32; G 0.478 ± 0.33; C 1.25 ± 0.14; Q 1.35 ± 0.054
C434: L 0.207 ± 0.089; P 0.202 ± 0.26; G 0.163 ± 0.16; V 0.211 ± 0.13; Y 0.0941 ± 0.11; W -0.0557 ± 0.096; F 0.223 ± 0.047; D 0.5 ± 0.11; H 0.179 ± 0.038; Q 0.225 ± 0.23; K -0.158 ± 0.1; T 0.243 ± 0.14; A 0.14 ± 0.15; R 0.0925 ± 0.12; M 0.34 ± 0.084; N 0.201 ± 0.12; S 0.275 ± 0.14; I 0.0869 ± 0.1; E 0.289 ± 0.11
G440: R 0.76 ± 0.21; K 0.598 ± 0.11; P 1.25 ± 0.12; Q 1.15 ± 0.066; L 0.997 ± 0.14; W 0.996 ± 0.03; D 0.799 ± 0.89; V 1.3 ± 0.26; E 0.195 ± 0.054; S 1.16 ± 0.4; F 1.04 ± 0.35; A 0.417 ± 0.2
R445: E 0.42 ± 0.073; P 0.738 ± 0.067; K 1.17 ± 0.26; L 0.998 ± 0.18; V 0.784 ± 0.24; S 0.952 ± 0.26; D 0.596 ± 0.048; A 0.543 ± 0.18; N 1.25 ± 0.17; I 0.985 ± 0.14; F 0.192 ± 0.16; G 0.978 ± 0.24; C 0.188 ± 0.15; T 0.578 ± 0.34; Q 0.898 ± 0.28; W 0.804 ± 0.14; H 0.423 ± 0.093
A451: T 0.528 ± 0.23; W 0.516 ± 0.2; V 0.438 ± 0.078; H 0.282 ± 0.15; E 1.02 ± 0.12; F -0.0649 ± 0.075; N 0.582 ± 0.09; S 0.496 ± 0.4; I 0.663 ± 0.18; G 0.686 ± 0.21; D 0.631 ± 0.11; Y 0.593 ± 0.28; K 0.893 ± 0.1; Q -0.927 ± 0.22; L 0.76 ± 0.37; R 1.19 ± 0.44; P 0.142 ± 0.14
F453: C 0.283 ± 0.1; A 0.274 ± 0.29; D 0.307 ± 0.1
A450: E 1.24 ± 0.089; P 0.565 ± 0.12; D 1.48 ± 0.055; R 1.4 ± 0.074; Q 1.13 ± 0.17; T 0.632 ± 0.29; H 1.43 ± 0.17; S 0.883 ± 0.2; L 1.22 ± 0.29; K -0.531 ± 0.21; N 1.35 ± 0.14; V 1.19 ± 0.3; F 1.24 ± 0.54; Y 0.311 ± 0.12; I 1.2 ± 0.2; G 0.382 ± 0.16; C 0.795 ± 0.2
C446: S -0.132 ± 0.15; E -1.3 ± 0.16; A 0.113 ± 0.089; G 0.144 ± 0.14; W -0.0678 ± 0.057; F 0.403 ± 0.22; Y -0.213 ± 0.15; R 0.0344 ± 0.14; P 0.448 ± 0.13; D -0.0826 ± 0.091; I 0.167 ± 0.25; M -0.496 ± 0.086; L 0.0671 ± 0.16; V -0.492 ± 0.2; T -0.0482 ± 0.24; K 0.294 ± 0.11; Q -0.0282 ± 0.15
C437: W 0.0698 ± 0.029; V 0.168 ± 0.1; K 0.35 ± 0.19; A 0.0947 ± 0.07; I 0.106 ± 0.14; L 0.255 ± 0.17; M -0.171 ± 0.072; H 0.0985 ± 0.1; R 0.0167 ± 0.12; Q 0.296 ± 0.039; N 0.452 ± 0.035; F 0.199 ± 0.17; P 0.172 ± 0.16; E 0.473 ± 0.29; Y 0.215 ± 0.15; D 0.609 ± 0.19; S 0.389 ± 0.13; G 0.0855 ± 0.11; T 0.164 ± 0.18
L444: M -0.874 ± 0.42; Q 0.642 ± 0.092; D 1.55 ± 0.075; T 0.477 ± 0.063; G 1.27 ± 0.24; V 1.13 ± 0.18; C 1.96 ± 0.078; A 0.718 ± 0.21; E 0.903 ± 0.13; N 0.882 ± 0.43; H 1.18 ± 0.073; F 0.489 ± 0.068; R 1.17 ± 0.17; I 1.08 ± 0.18; S 1.09 ± 0.34; P 0.0281 ± 0.11; Y 0.814 ± 0.26; K 0.847 ± 0.12; W 0.452 ± 0.12
C449: D 0.418 ± 0.038; H 0.515 ± 0.12; S -0.103 ± 0.24; T 0.263 ± 0.08; P 0.244 ± 0.13
